Reference: publication PMC4068993, “Chlamydia pneumoniae CopD Translocator Protein Plays a Critical Role in Type III Secretion (T3S) and Infection” (PLoS ONE, 2014)
Several values for one entry are separate records, joined by “and”; a condition that tells them apart may be missing. Equal values may be shown once.

Assays:
[1] = molecular target: Full length His-CopD (Chlamydia pneumoniae CWL029) (UniProt Q9Z798); experiment: SEC; co-expressed and Ni-NTA purified His-CopD and LcrH_1-S-tag (300 µL, 4.5 mg/mL), Superdex S200 10/300 GL, PBS + 0.03% LDAO, 0.5 mL/min; fractions blotted with anti-His and anti-S-tag; sizes from column standards
[2] = molecular target: the molecule itself; experiment: as above

Which stoichiometry N (LcrH 1 per CopD) [1] does the source give for LcrH_1-S-tag (natural protein) here?
The stoichiometry N (LcrH 1 per CopD) was 1.

B1: Full length His-CopD (natural protein)
chain: MTSGVSGSSSQDPTLAAQLAQSSQKAGNAQSGHDTKNVTKQGAQAEVAAGGFEDLIQDASAQSTGKKEATSSTTKSSKGEKSEKSGKSKSSTSVASASETATAQAVQGPKGLRQNNYDSPSLPTPEAQTINGIVLKKGMGTLALLGLVMTLMANAAGESWKASFQSQNQAIRSQVESAPAIGEAIKRQANHQASATEAQAKQSLISGIVNIVGFTVSVGAGIFSAAKGATSALKSASFAKETGASAAGGAASKALTSASSSVQQTMASTAKAATTAASSAGSAATKAAANLTDDMAAAASKMASDGASKASGGLFGEVLNKPNWSEKVSRGMNVVKTQGARVASFAGNALSSSMQMSQLMHGLTAAVEGLSAGQTGIEVAHHQRLAGQAEAQAEVLKQMSSVYGQQAGQAGQLQEQAMQSFNTALQTLQNIADSQTQTTSAIFN
notes: CopD (Cpn0808), Chlamydia pneumoniae CWL029, 444 amino acids (44.5 kDa); Eluted from SEC as decamer, tetramer and monomer; also called Cpn0808; source: E. coli Rosetta pLysS, co-expressed with LcrH_1-S-tag (pET-DUET), purified (Ni-NTA); not shown: 6×His, N-terminal, kept
For B1, which “stoichiometry N” value [2] is on record?
The value was 10 and 4.
